# Measurements as given in paper PMC3634016 (PLoS ONE, 2013).
# Biological target: T1, Wild type rat calmodulin (CaM) (rat, UniProt P0DP29 1-149)
# T1 construct: calmodulin, rat, wild type; also called Ca^2+-CaM; calcium-calmodulin; source: expressed from pET9d (Novagen), purified (Phenyl Sepharose, gel filtration)
# Assay: ITC; peptide titrated into Ca^2+-CaM alone; 25°C; 25 mM Tris-Cl pH 7.5, 75 mM NaCl, 0.5 mM CaCl2; one-set-of-sites model
# Settings: both partners purified
binder,measurement,value
"SWQAAIDAARQAKLMGS (17 mer with the N-terminal NSCaTE motif of the mammalian L-type calcium channel Cav1.2; also called Cav1.2 NSCaTE; source: synthetic peptide (CanPeptide Inc, >95% purity)) [mammalian NSCaTE_(Cav1.2) peptide]",stoichiometry N,2
